Test results taken from the supplement of paper PMC7877785.
± gives the uncertainty stated by the source.

Test: self-splicing fitness, log relative to wild type (ln ratio); higher = more splicing; Tetrahymena group I intron in knt gene, E. coli kanamycin selection, DiMSum; sequences stand for … in CUCUCU…GGAGGGAAAAGUUAUCAGGCAUGCACCUGGUAGCUAGUCUUUAAACCAAUAGAUUGCAUCGGUUUAAAAGGCAAGACCGUCAAAUUGCGGGAAAGGGGUCAACAGCCGUUCAGUACCAAGUCUCAGGGGAAACUUUGAGAUGGCCUUGCAAAGGGUAUGGUAAUAAGCUGACGGACAUGGUCCUAACCACGCAGCCAAGUCCUAAGUCAACAGAUCUUCUGUUGAUAUGGAUGCAGUUCACAGACUAAAUGUCGGUCGGGGAAGAUGUAUUCUUCUCAUAAGAUAUAGUCGGACCUCUCCUUAAUGGGAGCUAGCGGAUGAAGUGAUGCAACACUGGAGCCGCUGGGAACUAAUUUGUAUGCGAAAGUAUAUUGAUUAGUUUUGGAGUACUCGUGGUCG
How it was run: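 A randomised library covering all eight P1ex-region intron nucleotides was built with the intron in the knt kanamycin-resistance gene on pET-22b(+) and held in E. coli BL21(DE3). Cells were grown overnight at 37°C or 30°C on LB agar, with or without 25 μg/mL kanamycin, plus 100 μg/mL carbenicillin, 50 μM IPTG and 0.2% rhamnose, and pooled colonies were amplicon-sequenced on an Illumina HiSeq 2500. DiMSum fitness is the error-weighted combination of wild-type-normalised replicate fold changes, kanamycin versus none.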

Row | Sequence | self-splicing fitness (ln) (30 °C) | self-splicing fitness (ln) (37 °C)
1 | UCCUAGCAAUAUUACGGGGU | -4.13 ± 0.29 | -2.65 ± 0.2
2 | CGGCAGCAAUAUUACGUGAA | -2.25 ± 0.11 | -1.65 ± 0.15
3 | UACCAGCAAUAUUACGAAGU | -2.48 ± 0.22 | -2.74 ± 0.28
4 | AUUCAGCAAUAUUACGCUUG | -0.971 ± 0.083 | -0.265 ± 0.093
5 | CACGAGCAAUAUUACGAACG | -0.211 ± 0.12 | 0.033 ± 0.14
6 | AGACAGCAAUAUUACGGGGC | -3.97 ± 0.23 | -1.69 ± 0.17
7 | CUCUAGCAAUAUUACGUCAA | -4.19 ± 0.29 | -3.45 ± 0.25
8 | GCGUAGCAAUAUUACGAUUU | 0.253 ± 0.088 | -0.282 ± 0.09
9 | AAUUAGCAAUAUUACGUUCG | -1.16 ± 0.12 | -0.728 ± 0.18
10 | UAACAGCAAUAUUACGGAAG | -2.59 ± 0.12 | -1.93 ± 0.12
11 | AGACAGCAAUAUUACGGUGU | -3.34 ± 0.12 | -2.59 ± 0.12
12 | GAGGAGCAAUAUUACGAACC | -2.84 ± 0.42 | -1.19 ± 0.38
13 | AUAAAGCAAUAUUACGCACA | 0.246 ± 0.1 | 0.202 ± 0.15
14 | AAAUAGCAAUAUUACGUUCC | -2.08 ± 0.16 | -1.1 ± 0.19
15 | UCCCAGCAAUAUUACGAUCC | -1.93 ± 0.41 | -1.58 ± 0.46
16 | GGAUAGCAAUAUUACGAAUC | -1.72 ± 0.088 | -1.8 ± 0.12
17 | GCCGAGCAAUAUUACGAUAC |  | -1.59 ± 0.35
18 | CGUUAGCAAUAUUACGAUCG | -0.9 ± 0.11 | -1.12 ± 0.14
19 | AGCCAGCAAUAUUACGGAGA | -2.57 ± 0.16 | -1.34 ± 0.15
20 | CUUGAGCAAUAUUACGCUCU | -2.57 ± 0.5 | -1.13 ± 0.33
21 | UCUCAGCAAUAUUACGUCGG | -1.51 ± 0.085 | -1.22 ± 0.11
22 | GAUGAGCAAUAUUACGCUUA | -2.21 ± 0.28 | -2.33 ± 0.25
23 | GCAAAGCAAUAUUACGCCAA | -2.08 ± 0.48 | -2.95 ± 0.31
24 | AAGGAGCAAUAUUACGGGCU | -2.94 ± 0.24 | -2.53 ± 0.28
25 | UCCUAGCAAUAUUACGUGAA | -0.777 ± 0.078 | -0.552 ± 0.1
26 | UAUUAGCAAUAUUACGGCCC | -1.78 ± 0.5 | 

Row | Sequence | self-splicing fitness (ln) (30 °C) | self-splicing fitness (ln) (37 °C)
27 | AGGGAGCAAUAUUACGCGCU | -2.13 ± 0.23 | -0.719 ± 0.39
28 | UUAAAGCAAUAUUACGGUCA | 0.199 ± 0.071 | 0.479 ± 0.11
29 | UUGGAGCAAUAUUACGCACA | -0.871 ± 0.32 | 
30 | GCCCAGCAAUAUUACGAGGC | -3.64 ± 0.2 | -2.5 ± 0.22
31 | GAAGAGCAAUAUUACGGAAG | -2.81 ± 0.2 | -2.59 ± 0.44
32 | UAGAAGCAAUAUUACGGACC | -2 ± 0.4 | -0.433 ± 0.34
33 | GACUAGCAAUAUUACGACCG | -0.436 ± 0.3 | -0.537 ± 0.34
34 | AGGUAGCAAUAUUACGCCCC | -1.92 ± 0.044 | -1.56 ± 0.063
35 | AGAUAGCAAUAUUACGCUUC | -2.66 ± 0.42 | -2.27 ± 0.49
36 | AUGUAGCAAUAUUACGAAAU | -1.92 ± 0.086 | -0.989 ± 0.11
37 | AUUCAGCAAUAUUACGAGAA | -1.51 ± 0.18 | -1.74 ± 0.18
38 | AUCAAGCAAUAUUACGAGUA | -1.56 ± 0.11 | -0.436 ± 0.1
39 | ACGGAGCAAUAUUACGAAGC | -4.24 ± 0.39 | -2.4 ± 0.18
40 | UCCGAGCAAUAUUACGUCUU | -3.54 ± 0.25 | -1.62 ± 0.2
41 | AAUGAGCAAUAUUACGCCCG | -2.18 ± 0.43 | -1.76 ± 0.42
42 | GAUGAGCAAUAUUACGCGGG | -3.55 ± 0.42 | -3.59 ± 0.47
43 | CGCUAGCAAUAUUACGCUAU |  | -2.46 ± 0.27
44 | CAGAAGCAAUAUUACGCUGA | -2.87 ± 0.18 | -1.98 ± 0.15
45 | UAUCAGCAAUAUUACGGGCC |  | -2.07 ± 0.3
46 | CGGCAGCAAUAUUACGUCCA | -0.34 ± 0.1 | -0.521 ± 0.14
47 | AGCUAGCAAUAUUACGUUAC | -3.52 ± 0.27 | -1.87 ± 0.18
48 | UACCAGCAAUAUUACGCGUA | -1.9 ± 0.074 | -1.67 ± 0.093
49 | UGUCAGCAAUAUUACGGGUG | -0.605 ± 0.042 | -0.00626 ± 0.067
50 | UCGGAGCAAUAUUACGGGGA | -1.76 ± 0.2 | -1.13 ± 0.19
51 | UUUCAGCAAUAUUACGACGU | -1.71 ± 0.17 | -0.698 ± 0.18
52 | GUGAAGCAAUAUUACGGCUC | -0.996 ± 0.091 | -0.646 ± 0.099

Row | Sequence | self-splicing fitness (ln) (30 °C) | self-splicing fitness (ln) (37 °C)
53 | AGCAAGCAAUAUUACGCAAU | -2.54 ± 0.15 | -1.41 ± 0.13
54 | GCACAGCAAUAUUACGCCAC |  | -1.97 ± 0.2
55 | CGGUAGCAAUAUUACGUACA | -1.51 ± 0.14 | -0.643 ± 0.19
56 | AUCGAGCAAUAUUACGGUUA | -3.3 ± 0.23 | -1.04 ± 0.13
57 | ACACAGCAAUAUUACGCGUU | -4.3 ± 0.16 | -2.29 ± 0.14
58 | CUAAAGCAAUAUUACGUGUA | -3.82 ± 0.19 | -3.2 ± 0.23
59 | GCUUAGCAAUAUUACGGACU | -0.304 ± 0.085 | 0.4 ± 0.093
60 | AAGCAGCAAUAUUACGGAAA | -2.74 ± 0.12 | -2.26 ± 0.14
61 | CCACAGCAAUAUUACGUGAC | -3.38 ± 0.16 | -2.01 ± 0.13
62 | CCACAGCAAUAUUACGAUUU | -4.23 ± 0.19 | -3.01 ± 0.17
63 | UAUCAGCAAUAUUACGUUAU | -3.07 ± 0.11 | -1.89 ± 0.1
64 | UCUCAGCAAUAUUACGGGCC | -2.05 ± 0.2 | -1.37 ± 0.27
65 | UAUGAGCAAUAUUACGCUGU | -3.79 ± 0.25 | -3.21 ± 0.24
66 | CGCCAGCAAUAUUACGGCCU | -0.959 ± 0.061 | 0.409 ± 0.072
67 | CAACAGCAAUAUUACGGAGC | -2.28 ± 0.15 | -3.18 ± 0.27
68 | AAAGAGCAAUAUUACGGUGG | -2.85 ± 0.15 | -2.14 ± 0.25
69 | GACAAGCAAUAUUACGGCCC | -0.324 ± 0.16 | 0.203 ± 0.28
70 | CGGAAGCAAUAUUACGUUAG | -1.41 ± 0.061 | -0.697 ± 0.077
71 | CGAUAGCAAUAUUACGCCGC | -3.37 ± 0.37 | -1.3 ± 0.47
72 | UAGGAGCAAUAUUACGUGAG | -2.42 ± 0.14 | -1.55 ± 0.14
73 | ACGGAGCAAUAUUACGGUCG | -2.48 ± 0.11 | -0.856 ± 0.11
74 | GGGUAGCAAUAUUACGGCAC | -0.322 ± 0.14 | -0.0485 ± 0.18
75 | ACUCAGCAAUAUUACGUAAG | -0.973 ± 0.052 | -0.421 ± 0.078
76 | GACCAGCAAUAUUACGUAUC | -0.803 ± 0.1 | -0.659 ± 0.11
77 | CAAAAGCAAUAUUACGCCAC | -2.1 ± 0.24 | -1.89 ± 0.34
